Experimental data published in patent US20220411483A1 (Chugai, published 2022).
Residue numbers refer to the chain shown, from its start.

T1: FcγRIIa R type extracellular domain, His tag (human, UniProt P12318 34-217)
T1 construct: extracellular domain; also called FcgRIIaR
T1 sequence (looked up): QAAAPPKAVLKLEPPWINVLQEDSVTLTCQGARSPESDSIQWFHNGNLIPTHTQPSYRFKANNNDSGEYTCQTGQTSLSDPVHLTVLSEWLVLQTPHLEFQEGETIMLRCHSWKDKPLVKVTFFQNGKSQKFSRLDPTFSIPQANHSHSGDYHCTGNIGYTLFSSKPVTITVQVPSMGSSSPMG

T2: FcγRIIb extracellular domain, His tag (human, UniProt P31994 43-217)
T2 construct: extracellular domain; also called FcgRIIb
T2 sequence (looked up): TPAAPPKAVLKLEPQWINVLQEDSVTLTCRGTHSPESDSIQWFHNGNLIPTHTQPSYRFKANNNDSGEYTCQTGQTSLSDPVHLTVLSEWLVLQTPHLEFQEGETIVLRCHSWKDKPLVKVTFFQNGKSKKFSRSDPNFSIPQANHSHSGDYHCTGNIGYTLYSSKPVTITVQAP

T3: FcγRIIa H type extracellular domain, His tag (human, UniProt P12318 34-217)
T3 construct: extracellular domain; also called FcgRIIaH
T3 sequence (looked up): T1 sequence (looked up) with R134H

B1: IL6R-P658/IL6R-L (antibody, human IgG1, kappa)
heavy: QVQLQESGPGLVKPSETLSLTCAVSGHSISHDHAWSWVRQPPGEGLEWIGFISYSGITNYNPSLQGRVTISRDNSKNTLYLQMNSLRAEDTAVYYCARSLARTTAMDYWGEGTLVTVSSASTKGPSVFPLAPSSKSTSGGTAALGCLVKDYFPEPVTVSWNSGALTSGVHTFPAVLQSSGLYSLSSVVTVPSSSLGTQTYICNVNHKPSNTKVDKKVEPKSCDKTHTCPPCPAPELFGGDSVMLFPPKPKDTLMISRTPEVTCVVVDVSHEDPEVKFNWYVDGVEVHNAKTKPREEQENSTYRVVSVLTVLHQDWLNGKEYKCKVSNKALPAPIEKTISKAKGQPREPQVYTLPPSRDELTKNQVSLTCLVKGFYPSDIAVEWESNGQPENNYKTTPPVLDSDGSFFLYSKLTVDKSRWQQGNVFSCSVMHEALHNHYTQKSLSLSP
light: not shown
B2: IL6R-P659/IL6R-L (antibody, human IgG1, kappa)
heavy: B1 heavy with F237L, G239Q
light: not shown
B3: IL6R-P660/IL6R-L (antibody, human IgG1, kappa)
heavy: B1 heavy with F237L, M243F, E298Y, S300A, S326N
light: not shown
B4: IL6R-P661/IL6R-L (antibody, human IgG1, kappa)
heavy: B1 heavy with F237L, M243F, E298Y, S300A, A332H
light: not shown
B5: IL6R-P687/IL6R-L (antibody, human IgG1, kappa)
heavy: B1 heavy with F237L, M243F, E298Y, S300A, S326N, A332H
light: not shown
B6: IL6R-P689/IL6R-L (antibody, human IgG1, kappa)
heavy: B1 heavy with F237L, H270P, S326H
light: not shown
B7: IL6R-P690/IL6R-L (antibody, human IgG1, kappa)
heavy: B1 heavy with F237L, G239Q, A332H
light: not shown
B8: IL6R-P691/IL6R-L (antibody, human IgG1, kappa)
heavy: B1 heavy with G239Q
light: not shown
B9: IL6R-P692/IL6R-L (antibody, human IgG1, kappa)
heavy: B1 heavy with G239Q, A332H
light: not shown
B10: IL6R-P693/IL6R-L (antibody, human IgG1, kappa)
heavy: B1 heavy with F237L, M243F, S300A
light: not shown

target: T4, FcγRIIIa V type extracellular domain, His tag (human, UniProt P08637 17-208); test: SPR, KD ratio
T4 construct: extracellular domain; also called FcgRIIIaV
T4 sequence (P08637 17-208 F176V): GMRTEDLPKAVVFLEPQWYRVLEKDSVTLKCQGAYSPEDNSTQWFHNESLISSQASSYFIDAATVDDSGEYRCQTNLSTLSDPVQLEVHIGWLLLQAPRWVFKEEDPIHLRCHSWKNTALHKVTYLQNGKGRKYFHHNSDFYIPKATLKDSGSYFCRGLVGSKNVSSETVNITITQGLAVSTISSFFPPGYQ

Row | Binder | Relative FcgRIIIaV-binding Activity
1 | B1 | 0.005 fold of IL6R-G1d/IL6R-L
2 | B2 | 0.005 fold of IL6R-G1d/IL6R-L
3 | B3 | 0.011 fold of IL6R-G1d/IL6R-L
4 | B4 | 0.012 fold of IL6R-G1d/IL6R-L
5 | B5 | 0.008 fold of IL6R-G1d/IL6R-L
6 | B6 | 0.007 fold of IL6R-G1d/IL6R-L
7 | B7 | 0.005 fold of IL6R-G1d/IL6R-L
8 | B8 | 0.007 fold of IL6R-G1d/IL6R-L
9 | B9 | 0.006 fold of IL6R-G1d/IL6R-L
10 | B10 | 0.008 fold of IL6R-G1d/IL6R-L

target: T5, FcγRIa extracellular domain, His tag (human, UniProt P12314 16-292); test: SPR, KD ratio
T5 construct: whole entry named; also called FcgRIa
T5 sequence (P12314 16-292): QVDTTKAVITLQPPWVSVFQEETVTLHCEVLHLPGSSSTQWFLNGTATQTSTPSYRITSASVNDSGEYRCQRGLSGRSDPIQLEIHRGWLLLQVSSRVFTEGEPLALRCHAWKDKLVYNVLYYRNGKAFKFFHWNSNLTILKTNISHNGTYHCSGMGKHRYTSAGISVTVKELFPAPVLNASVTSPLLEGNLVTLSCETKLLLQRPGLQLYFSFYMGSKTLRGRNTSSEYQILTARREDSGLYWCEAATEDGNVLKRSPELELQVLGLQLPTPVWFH

Row | Binder | Relative FcgRIa-binding Activity
11 | B1 | 0.0004 fold of IL6R-G1d/IL6R-L
12 | B2 | 0.0041 fold of IL6R-G1d/IL6R-L
13 | B3 | 0.0446 fold of IL6R-G1d/IL6R-L
14 | B4 | 0.033 fold of IL6R-G1d/IL6R-L
15 | B5 | 0.0471 fold of IL6R-G1d/IL6R-L
16 | B6 | 0.0118 fold of IL6R-G1d/IL6R-L
17 | B7 | 0.0011 fold of IL6R-G1d/IL6R-L
18 | B8 | 0.0004 fold of IL6R-G1d/IL6R-L
19 | B9 | 0.0006 fold of IL6R-G1d/IL6R-L
20 | B10 | 0.0423 fold of IL6R-G1d/IL6R-L

target: T1, FcγRIIa R type extracellular domain, …; test: SPR, KD ratio

Row | Binder | Relative FcgRIIaR-binding Activity
21 | B1 | 0.038 fold of IL6R-G1d/IL6R-L
22 | B2 | 0.015 fold of IL6R-G1d/IL6R-L
23 | B3 | 0.025 fold of IL6R-G1d/IL6R-L
24 | B4 | 0.03 fold of IL6R-G1d/IL6R-L
25 | B5 | 0.02 fold of IL6R-G1d/IL6R-L
26 | B6 | 0.016 fold of IL6R-G1d/IL6R-L
27 | B7 | 0.017 fold of IL6R-G1d/IL6R-L
28 | B8 | 0.017 fold of IL6R-G1d/IL6R-L
29 | B9 | 0.022 fold of IL6R-G1d/IL6R-L
30 | B10 | 0.018 fold of IL6R-G1d/IL6R-L

target: T2, FcγRIIb extracellular domain, His tag; test: SPR, KD ratio

Row | Binder | Relative FcgRIIb-binding Activity
31 | B1 | 3.81 fold of IL6R-G1d/IL6R-L
32 | B2 | 0.807 fold of IL6R-G1d/IL6R-L
33 | B3 | 0.972 fold of IL6R-G1d/IL6R-L
34 | B4 | 1.28 fold of IL6R-G1d/IL6R-L
35 | B5 | 1.01 fold of IL6R-G1d/IL6R-L
36 | B6 | 1.09 fold of IL6R-G1d/IL6R-L
37 | B7 | 1.28 fold of IL6R-G1d/IL6R-L
38 | B8 | 1.19 fold of IL6R-G1d/IL6R-L
39 | B9 | 1.89 fold of IL6R-G1d/IL6R-L
40 | B10 | 0.918 fold of IL6R-G1d/IL6R-L

target: T3, FcγRIIa H type extracellular domain, …; test: SPR, KD ratio

Row | Binder | Relative FcgRIIaH-binding Activity
41 | B1 | 0.01 fold of IL6R-G1d/IL6R-L
42 | B2 | 0.006 fold of IL6R-G1d/IL6R-L
43 | B3 | 0.009 fold of IL6R-G1d/IL6R-L
44 | B4 | 0.01 fold of IL6R-G1d/IL6R-L
45 | B5 | 0.007 fold of IL6R-G1d/IL6R-L
46 | B6 | 0.008 fold of IL6R-G1d/IL6R-L
47 | B7 | 0.007 fold of IL6R-G1d/IL6R-L
48 | B8 | 0.007 fold of IL6R-G1d/IL6R-L
49 | B9 | 0.008 fold of IL6R-G1d/IL6R-L
50 | B10 | 0.006 fold of IL6R-G1d/IL6R-L

target: T1, FcγRIIa R type extracellular domain, …; test: SPR, bound amount per captured antibody

Row | Binder | Relative FcgRIIaR-binding Activity
51 | B1 | 20.8 % of IL6R-G1d/IL6R-L
52 | B2 | 9.1 % of IL6R-G1d/IL6R-L
53 | B3 | 14.7 % of IL6R-G1d/IL6R-L
54 | B4 | 17.5 % of IL6R-G1d/IL6R-L
55 | B5 | 12.6 % of IL6R-G1d/IL6R-L
56 | B6 | 10.1 % of IL6R-G1d/IL6R-L
57 | B7 | 10.5 % of IL6R-G1d/IL6R-L
58 | B8 | 10.7 % of IL6R-G1d/IL6R-L
59 | B9 | 13.7 % of IL6R-G1d/IL6R-L
60 | B10 | 11.4 % of IL6R-G1d/IL6R-L

target: T2, FcγRIIb extracellular domain, His tag; test: SPR, bound amount per captured antibody

Row | Binder | Relative FcgRIIb-binding Activity
61 | B1 | 149 % of IL6R-G1d/IL6R-L
62 | B2 | 87 % of IL6R-G1d/IL6R-L
63 | B3 | 100 % of IL6R-G1d/IL6R-L
64 | B4 | 109 % of IL6R-G1d/IL6R-L
65 | B5 | 100 % of IL6R-G1d/IL6R-L
66 | B6 | 103 % of IL6R-G1d/IL6R-L
67 | B7 | 102 % of IL6R-G1d/IL6R-L
68 | B8 | 104 % of IL6R-G1d/IL6R-L
69 | B9 | 127 % of IL6R-G1d/IL6R-L
70 | B10 | 87.9 % of IL6R-G1d/IL6R-L
